Data from CN117430709A (KANGWEI ZHONGHE ZHONGSHAN BIOLOGICAL PHARMACEUTICAL CO LTD; …, dated 2024).

T1: BCMA on multiple myeloma cell lines RPMI8226 (low BCMA) and U266 (high BCMA) (human, UniProt Q02223 1-184)
T1 construct: whole, on cells; endogenous expression; also called CD269; TNFRSF17
T1 sequence (looked up): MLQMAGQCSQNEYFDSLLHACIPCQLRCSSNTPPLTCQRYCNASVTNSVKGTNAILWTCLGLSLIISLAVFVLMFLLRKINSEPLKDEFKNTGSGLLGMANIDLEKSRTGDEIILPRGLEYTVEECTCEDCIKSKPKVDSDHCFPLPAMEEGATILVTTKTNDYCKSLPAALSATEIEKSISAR

B1: NbBCMA-8 (VHH)
VHH: QVQLVESGGGLVQAGGSLRLSCAASTRTFSSYVMAWFRQVPGKEREFVASRACSGGTPYYADSVKGRFFISRDDAKNTVYLRMNSLKPEDTAVYYCAAASIGATQYDYWGQGTQVIVSS
notes: Expressed in E. coli from PET30a(+); the supernatant of sonicated bacteria was used in flow cytometry; not shown: His tag from the PET30a(+) vector (detected with anti-his-FITC)
B2: NbBCMA-5 (VHH)
VHH: QVQLVETGGGLVQAGGSLRLSCAASGTIFSVYNMGWFRQAPGKQRELVAAITKNGSTSYKDSVKGRFTISTDNAKNTVDLRMSSLKLGDTAVYFCAAWDWDKNQAYWGQGTQVTVSS
notes: as for B1

Target: T1, BCMA on multiple myeloma cell lines …
Test: flow cytometry on RPMI8226 cells (low BCMA), anti-his-FITC

Row | Binder | binding result
1 | B1 | binds
2 | B2 | binds
